Patent US20260374875 (published 2026)

Experiments:
human FcRn [1] = biological target: T1, human FcRn (human, UniProt P55899); experiment: SPR, pH 6.0, 25C
human FcRn [2] = biological target: T1, human FcRn; experiment: SPR, pH 7.4, 25C
monkey FcRn = biological target: T2, monkey FcRn (monkey, UniProt Q8SPV9); experiment: SPR, pH 6.0, 25C
T2 chain 1: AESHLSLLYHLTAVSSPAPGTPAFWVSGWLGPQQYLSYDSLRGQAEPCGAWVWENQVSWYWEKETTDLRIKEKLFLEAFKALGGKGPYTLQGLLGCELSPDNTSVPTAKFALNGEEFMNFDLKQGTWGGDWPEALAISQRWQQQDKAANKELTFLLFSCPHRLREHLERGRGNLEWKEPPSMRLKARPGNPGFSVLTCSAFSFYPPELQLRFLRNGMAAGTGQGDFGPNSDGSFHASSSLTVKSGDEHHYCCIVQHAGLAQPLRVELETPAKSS
T2 chain 2: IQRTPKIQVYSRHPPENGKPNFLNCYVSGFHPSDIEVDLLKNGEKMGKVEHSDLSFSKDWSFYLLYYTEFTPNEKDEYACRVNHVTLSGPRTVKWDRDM

mouse FcRn = biological target: T3, mouse FcRn (mouse, UniProt Q61559); experiment: SPR, pH 6.0, 25C
T3 chain 1: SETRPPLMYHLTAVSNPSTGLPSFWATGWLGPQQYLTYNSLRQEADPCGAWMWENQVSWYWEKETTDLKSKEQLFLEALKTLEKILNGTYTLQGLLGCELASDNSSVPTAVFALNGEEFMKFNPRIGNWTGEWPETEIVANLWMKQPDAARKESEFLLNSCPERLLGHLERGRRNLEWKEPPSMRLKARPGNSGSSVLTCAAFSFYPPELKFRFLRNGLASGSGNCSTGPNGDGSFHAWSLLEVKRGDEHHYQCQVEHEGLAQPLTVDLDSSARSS
T3 chain 2: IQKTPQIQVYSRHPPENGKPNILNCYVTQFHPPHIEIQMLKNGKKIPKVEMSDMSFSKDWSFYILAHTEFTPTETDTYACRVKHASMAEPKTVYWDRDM

human FcRn [3] = biological target: T1, human FcRn; experiment: SPR, pH 6.0, 25C; remark: listed apart in the source

B1: W11A4.1 (Dimer) (protein)
chain: MGWSCIILFLVATATGVHSSDKTHTCPPCPAPEAAGGPSVFLFPPKPKDTLMISRTPEVTCVVVDVSHEDPEVKFNWYVDGVEVHNAKTKPREEQYNSTYRVVSVLNPYHQDWLNGKEYKCKVSNKALGAPIEKTISKAKGQPREPQVYTLPPSRDELTKNQVSLTCLVKGFYPSDIAVEWESNGQPENNYKTTPPVLDSDGSFFLYSKLTVDKSRWQQGNVFSCSVMHEALRWHYTQKSLSLSPGKGGGSGGGSGGGSGGGSSGGGSSSDKTHTSPPSPAPEAAGGPSVFLFPPKPKDTLMISRTPEVTCVVVDVSHEDPEVKFNWYVDGVEVHNAKTKPREEQYNSTYRVVSVLNPYHQDWLNGKEYKCKVSNKALGAPIEKTISKAKGQPREPQVYTLPPSRDELTKNQVSLTCLVKGFYPSDIAVEWESNGQPENNYKTTPPVLDSDGSFFLYSKLTVDKSRWQQGNVFSCSVMHEALRWHYTQKSLSLSPGK
With B1 the Kd (human FcRn [1]) was 1.68 nM.

B2: H11A4.3 (monomer) (protein)
chain: MGWSCIILFLVATATGVHSSDKTHTCPPCPAPEAAGGPSVFLFPPKPKDTLYITREPEVTCVVVDVSHEDPEVKFNWYVDGVEVHNAKTKPREEQYNSTYRVVSVLNPYHQDWLNGKEYKCKVSNKALGAPIEKTISKAKGQPREPQVYTLPPSREEMTKNQVSLTCLVKGFYPSDIAVEWESNGQPENNYKTTPPVLDSDGSFFLYSKLTVDKSRWQQGNVFSCSVMHEALRWHYTQKSLSLSPGK
B2 gave a Kd (human FcRn [2]) of 7.62 nM, a Kd (human FcRn [1]) of 0.288 nM and a Kd (monkey FcRn) of 1.38 nM. For the same binder, the Kd (mouse FcRn) was 0.839 nM and the Kd (human FcRn [3]) was 0.288 nM.

B3: H11A4.1 (Monomer) (protein)
chain: MGWSCIILFLVATATGVHSSDKTHTCPPCPAPEAAGGPSVFLFPPKPKDTLMISRTPEVTCVVVDVSHEDPEVKFNWYVDGVEVHNAKTKPREEQYNSTYRVVSVLNPYHQDWLNGKEYKCKVSNKALGAPIEKTISKAKGQPREPQVYTLPPSREEMTKNQVSLTCLVKGFYPSDIAVEWESNGQPENNYKTTPPVLDSDGSFFLYSKLTVDKSRWQQGNVFSCSVMHEALRWHYTQKSLSLSPGK
B3 gave a Kd (human FcRn [2]) of 15.2 nM, a Kd (human FcRn [1]) of 0.559 nM and a Kd (monkey FcRn) of 0.928 nM. It also gave a Kd (mouse FcRn) of 0.0918 nM and a Kd (human FcRn [3]) of 0.7 nM.

B4: H11A4.2 (monomer) (protein)
chain: MGWSCIILFLVATATGVHSSDKTHTCPPCPAPELLGGPSVFLFPPKPKDTLYITREPEVTCVVVDVSHEDPEVKFNWYVDGVEVHNAKTKPREEQYNSTYRVVSVLNPYHQDWLNGKEYKCKVSNKALPAPIEKTISKAKGQPREPQVYTLPPSRDELTKNQVSLTCLVKGFYPSDIAVEWESNGQPENNYKTTPPVLDSDGSFFLYSKLTVDKSRWQQGNVFSCSVMHEALRWHYTQKSLSLSPGK
B4 was tested, and the Kd (human FcRn [2]) was 3.51 nM, the Kd (human FcRn [1]) was 0.292 nM and the Kd (monkey FcRn) was 0.592 nM. The Kd (mouse FcRn) was 0.0556 nM and the Kd (human FcRn [3]) was 0.292 nM.

B5: A3 H11A4.3 (mAb) (antibody)
chain 1: not shown
chain 2: MGWSCIILFLVATATGVHSQSALTQPASVSGSPGQSITISCTGTSSDVGGYNYVSWYQQHPGKAPKLMIYDVSKRPSGVSNRFSGSKSGNTASLTISGLQSEDEADYYCNSLTSISTWVFGGGTKLTVLGQPKANPTVTLFPPSSEELQANKATLVCLISDFYPGAVTVAWKADGSPVKAGVETTKPSKQSNNKYAASSYLSLTPEQWKSHRSYSCQVTHEGSTVEKTVAPTECS
In the case of B5, the Kd (human FcRn [2]) is reported as 18.8 nM, the Kd (human FcRn [1]) is reported as 0.803 nM and the Kd (monkey FcRn) is reported as 3.76 nM. It also gave a Kd (mouse FcRn) of 2.57 nM and a Kd (human FcRn [3]) of 0.803 nM.

B6: A3 H11A4.2 (mAb) (antibody)
chain 1: not shown
chain 2: MGWSCIILFLVATATGVHSQSALTQPASVSGSPGQSITISCTGTSSDVGGYNYVSWYQQHPGKAPKLMIYDVSKRPSGVSNRFSGSKSGNTASLTISGLQSEDEADYYCNSLTSISTWVFGGGTKLTVLGQPKANPTVTLFPPSSEELQANKATLVCLISDFYPGAVTVAWKADGSPVKAGVETTKPSKQSNNKYAASSYLSLTPEQWKSHRSYSCQVTHEGSTVEKTVAPTECS
B6 showed a Kd (human FcRn [2]) of 11.2 nM, a Kd (human FcRn [1]) of 1.04 nM and a Kd (monkey FcRn) of 0.914 nM. For the same binder, the Kd (mouse FcRn) was 0.113 nM and the Kd (human FcRn [3]) was 1.04 nM.

B7: A3 H11A4.1 (mAb) (antibody)
chain 1: not shown
chain 2: MGWSCIILFLVATATGVHSQSALTQPASVSGSPGQSITISCTGTSSDVGGYNYVSWYQQHPGKAPKLMIYDVSKRPSGVSNRFSGSKSGNTASLTISGLQSEDEADYYCNSLTSISTWVFGGGTKLTVLGQPKANPTVTLFPPSSEELQANKATLVCLISDFYPGAVTVAWKADGSPVKAGVETTKPSKQSNNKYAASSYLSLTPEQWKSHRSYSCQVTHEGSTVEKTVAPTECS
B7 was tested, and the Kd (human FcRn [2]) was 29.6 nM, the Kd (human FcRn [1]) was 1.93 nM and the Kd (monkey FcRn) was 3.13 nM. For the same binder, the Kd (mouse FcRn) was 0.165 nM and the Kd (human FcRn [3]) was 2.6 nM.

B8: B14 H11A4.1 (mAb) (antibody)
chain 1: MGWSCIILFLVATATGVHSQVQLVESGGGLVKPGGSLRLSCAASGFTFSDYYMSWIRQAPGKGLEWVSYITYSGSTIYYADSVKGRFTISRDNAKSSLYLQMNSLRAEDTAVYYCARDRGTTMVPFDYWGQGTLVTVSSASTKGPSVFPLAPSSKSTSGGTAALGCLVKDYFPEPVTVSWNSGALTSGVHTFPAVLQSSGLYSLSSVVTVPSSSLGTQTYICNVNHKPSNTKVDKKVEPKSCDKTHTCPPCPAPEAAGGPSVFLFPPKPKDTLMISRTPEVTCVVVDVSHEDPEVKFNWYVDGVEVHNAKTKPREEQYNSTYRVVSVLNPYHQDWLNGKEYKCKVSNKALGAPIEKTISKAKGQPREPQVYTLPPSREEMTKNQVSLTCLVKGFYPSDIAVEWESNGQPENNYKTTPPVLDSDGSFFLYSKLTVDKSRWQQGNVFSCSVMHEALRWHYTQKSLSLSPGK
chain 2: not shown
B8 was tested, and the Kd (human FcRn [2]) was 34.1 nM, the Kd (human FcRn [1]) was 2.85 nM and the Kd (monkey FcRn) was 4.26 nM. For the same binder, the Kd (mouse FcRn) was 0.189 nM and the Kd (human FcRn [3]) was 3.3 nM.

B9: B14 H11A4.3 (mAb) (antibody)
chain 1: MGWSCIILFLVATATGVHSQVQLVESGGGLVKPGGSLRLSCAASGFTFSDYYMSWIRQAPGKGLEWVSYITYSGSTIYYADSVKGRFTISRDNAKSSLYLQMNSLRAEDTAVYYCARDRGTTMVPFDYWGQGTLVTVSSASTKGPSVFPLAPSSKSTSGGTAALGCLVKDYFPEPVTVSWNSGALTSGVHTFPAVLQSSGLYSLSSVVTVPSSSLGTQTYICNVNHKPSNTKVDKKVEPKSCDKTHTCPPCPAPEAAGGPSVFLFPPKPKDTLYITREPEVTCVVVDVSHEDPEVKFNWYVDGVEVHNAKTKPREEQYNSTYRVVSVLNPYHQDWLNGKEYKCKVSNKALGAPIEKTISKAKGQPREPQVYTLPPSREEMTKNQVSLTCLVKGFYPSDIAVEWESNGQPENNYKTTPPVLDSDGSFFLYSKLTVDKSRWQQGNVFSCSVMHEALRWHYTQKSLSLSPGK
chain 2: not shown
With B9 the Kd (human FcRn [2]) was 15.1 nM, the Kd (human FcRn [1]) was 1.23 nM and the Kd (monkey FcRn) was 2.45 nM. For the same binder, the Kd (mouse FcRn) was 0.782 nM and the Kd (human FcRn [3]) was 1.23 nM.

B10: B14 H11A4.2 (mAb) (antibody)
chain 1: MGWSCIILFLVATATGVHSQVQLVESGGGLVKPGGSLRLSCAASGFTFSDYYMSWIRQAPGKGLEWVSYITYSGSTIYYADSVKGRFTISRDNAKSSLYLQMNSLRAEDTAVYYCARDRGTTMVPFDYWGQGTLVTVSSASTKGPSVFPLAPSSKSTSGGTAALGCLVKDYFPEPVTVSWNSGALTSGVHTFPAVLQSSGLYSLSSVVTVPSSSLGTQTYICNVNHKPSNTKVDKKVEPKSCDKTHTCPPCPAPELLGGPSVFLFPPKPKDTLYITREPEVTCVVVDVSHEDPEVKFNWYVDGVEVHNAKTKPREEQYNSTYRVVSVLNPYHQDWLNGKEYKCKVSNKALPAPIEKTISKAKGQPREPQVYTLPPSREEMTKNQVSLTCLVKGFYPSDIAVEWESNGQPENNYKTTPPVLDSDGSFFLYSKLTVDKSRWQQGNVFSCSVMHEALRWHYTQKSLSLSPGK
chain 2: not shown
With B10 the Kd (human FcRn [1]) was 1.74 nM.
